Laboratory results published in patent US20180022809A1 (VENTANA MEDICAL SYSTEMS, published 2018).
No end group written: not given here.

T1: peptide fragment of the cytoplasmic region (amino acid residues 279-290) of human PD-L1 (human, not fully specified)
T1 construct: For immunization, Cys-Gly was appended to the N-terminus and the peptide was conjugated to KLH; also called PD-L1 antigen
T1 peptide: SKKQSDTHLEET


Key:
[1] = target: human programmed death-ligand 1 (PD-L1) (human) (UniProt Q9NZQ7); experiment: IHC on FFPE tissue sections of 119 NSCLC cases
Chain of human programmed death-ligand 1 (PD-L1) (human) (Q9NZQ7 19-290 limits assumed): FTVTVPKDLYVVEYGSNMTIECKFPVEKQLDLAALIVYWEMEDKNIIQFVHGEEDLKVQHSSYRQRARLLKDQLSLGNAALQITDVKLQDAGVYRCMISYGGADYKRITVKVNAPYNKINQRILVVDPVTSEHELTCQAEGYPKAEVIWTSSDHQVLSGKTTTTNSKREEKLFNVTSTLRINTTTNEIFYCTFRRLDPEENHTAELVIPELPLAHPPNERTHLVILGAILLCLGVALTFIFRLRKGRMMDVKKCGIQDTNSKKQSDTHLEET

[2] = target: T1, peptide fragment of the cytoplasmic …; experiment: ELISA screen on the PD-L1 peptide antigen

Row | binding result [2] | Molecule | mean H score (extent of membrane immunoreactivity) (H score (range 0 to 300)) [1]
1 |  | anti-PD-L1 antibody E1L3N (Cell Signaling Technology) | 56
2 | binds | anti-PD-L1 antibody SP142 (antibody, V domains shown, the constant regions are not; also called rabbit anti-human PD-L1 (SP142) monoclonal antibody) VH: QSLEESGGRLVKPDETLTITCTVSGIDLSSNGLTWVRQAPGEGLEWIGTINKDASAYYASWAKGRLTISKPSSTKVDLKITSPTTEDTATYFCGRIAFKTGTSIWGPGTLVTVSS VL: AIVMTQTPSPVSAAVGGTVTINCQASESVYSNNYLSWFQQKPGQPPKLLIYLASTLASGVPSRFKGSGSGTQFTLTISGVQCDDAATYYCIGGKSSSTDGNAFGGGTEVVVR | 
